Laboratory results as given in patent publication US20260070940A1 (Hoffmann-La Roche, published 2026).
Numbering of substitutions follows the chain as printed. One block for each binder: values may come before it.

Experiments:
[1] = molecular target: T1, soluble human Lag3-IgG1-Fc with biotinylated C-terminal Avi-tag (human, biotin on the Avi-tag); experiment: SPR, LAG3-Fc immobilised
T1 construct: Lag3 ECD, IEGRMD linker, IgG1 Fc, Avi-tag; also called LAG3-Fc-avi; biotinylated LAG3-Fc

[2] = molecular target: T1, soluble human Lag3-IgG1-Fc with …; experiment: ELISA, supernatant on biotinylated antigen
[3] = molecular target: T2, hu(NA1)BA-avi-His, biotinylated (human, biotin on the avi-tag); experiment: SPR, purified aVH
T2 construct: CEACAM5 domains N and A1 followed by two CEACAM1 Ig domains, avi-tag and his-tag; also called CEA antigen; chimera of CEACAM5 domains N and A1 on CEACAM1
T2 chain: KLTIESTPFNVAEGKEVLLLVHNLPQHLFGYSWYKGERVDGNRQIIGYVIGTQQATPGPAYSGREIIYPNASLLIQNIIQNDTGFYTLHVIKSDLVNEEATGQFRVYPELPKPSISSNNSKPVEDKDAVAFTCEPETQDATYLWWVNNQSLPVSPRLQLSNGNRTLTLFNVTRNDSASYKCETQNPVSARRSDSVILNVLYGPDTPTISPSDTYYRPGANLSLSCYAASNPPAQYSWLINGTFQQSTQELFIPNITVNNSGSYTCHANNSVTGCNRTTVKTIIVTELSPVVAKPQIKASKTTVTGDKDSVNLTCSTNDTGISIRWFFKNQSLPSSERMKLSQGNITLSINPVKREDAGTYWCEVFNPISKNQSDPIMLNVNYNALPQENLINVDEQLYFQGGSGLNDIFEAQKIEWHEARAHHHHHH
Procedure: CEACAM1-avi-his was again used as a negative control Immobilization of recombinant antigens (ligand): Antigen was diluted with PBST (10 mM phosphate, 150 mM sodium chloride pH 7.4, 0.005% Tween 20) to 10 μg/ml, then injected at 30 μl/minute at varying contact times, to achieve immobilization levels of 200, 400 or 800 response units (RU) in vertical orientation. […] Buffer (PBST) was injected along the sixth channel to provide an “in-line” blank for referencing. Association rate constants (kₒₙ) and dissociation rate constants (koff) were calculated using a simple one-to-one Langmuir binding model in ProteOn Manager v3.1 software by simultaneously fitting the association and dissociation sensorgrams. The equilibrium dissociation constant (KD) was calculated as the ratio koff/kₒₙ.

[4] = molecular target: T3, full-length human CEA with N-terminal SNAP tag on transfected HEK293 cells (human, UniProt P06731 35-685, SNAP tag labelled with terbium); experiment: FRET (TagLite) on hu CEA-SNAP cells
T3 construct: whole, on cells; also called hu CEA-SNAP; CEACAM5
T3 sequence (looked up): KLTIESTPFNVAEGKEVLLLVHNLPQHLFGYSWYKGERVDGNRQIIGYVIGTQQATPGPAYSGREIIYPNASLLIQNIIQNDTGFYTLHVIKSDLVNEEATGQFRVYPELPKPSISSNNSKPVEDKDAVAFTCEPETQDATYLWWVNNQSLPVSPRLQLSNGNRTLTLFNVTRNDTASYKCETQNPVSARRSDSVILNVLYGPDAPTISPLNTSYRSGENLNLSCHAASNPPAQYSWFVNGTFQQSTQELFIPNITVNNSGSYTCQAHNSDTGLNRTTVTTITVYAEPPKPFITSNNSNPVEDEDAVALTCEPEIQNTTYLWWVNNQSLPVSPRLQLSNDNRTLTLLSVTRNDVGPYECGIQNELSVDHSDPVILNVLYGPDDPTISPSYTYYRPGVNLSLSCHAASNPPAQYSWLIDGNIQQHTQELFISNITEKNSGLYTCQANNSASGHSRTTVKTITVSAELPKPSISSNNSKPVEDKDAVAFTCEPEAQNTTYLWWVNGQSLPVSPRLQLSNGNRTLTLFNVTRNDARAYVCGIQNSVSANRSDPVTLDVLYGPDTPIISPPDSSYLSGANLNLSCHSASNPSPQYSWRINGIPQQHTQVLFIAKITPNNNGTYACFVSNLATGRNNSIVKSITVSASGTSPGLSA
Procedure: Binding of a selected set of purified aVH binders to their epitope on CEA-expressing cells was determined by Fluorescence Resonance Energy Transfer (FRET) analysis. For this analysis, the DNA sequence encoding for the SNAP Tag (plasmid purchased from Cisbio) was amplified by PCR and ligated into an expression vector, containing the full length human CEA sequence. The resulting fusion protein was comprised of full-length CEA with an N-terminal SNAP tag. HEK293 cells were transfected with 10 μg DNA using Lipofectamine 2000 as transfection reagent. After an incubation time of 20 h, cells were washed with PBS and incubated for 1 h at 37° C. in LabMed buffer (Cisbio) containing 100 nM SNAP-Lumi4Tb (Cibsio), leading to specific labeling of the SNAP Tag. Subsequently, cells were washed 4 times with LabMed buffer to remove unbound dye. […] Cells were then stored frozen at −80° C. for up to 6 months. Binding was measured by adding CEA-specific aVH binders at a concentration ranging from 0.005 up to 100 nM to labeled cells (100 cells per well) followed by addition of d2-labeled anti-his tag antibody (Cisbio, final concentration was 200 nM per well) as acceptor molecule for the FRET. […] The ratio of acceptor to donor emission was calculated and the ratio of the background control (cells only incubated with anti-his tag antibody) subtracted. Curves were analysed in GraphPad Prism5 (FIG. 9) and KDs calculated (Table 26).

[5] = molecular target: T2, hu(NA1)BA-avi-His, biotinylated; experiment: SPR, bacterial supernatant
Procedure: The off-rate of selected aVH clones was measured using a ProteOn XPR36 instrument (Biorad) at 25° C. with biotinylated hu(NA1)BA-avi-His immobilized on NLC chips by neutravidin capture. CEACAM1-avi-his was used as a negative control. Immobilization of recombinant antigens (ligand): Antigens were diluted with PBST (10 mM phosphate, 150 mM sodium chloride pH 7.4, 0.005% Tween 20) to 10 μg/ml, then injected at 30 μl/minute at varying contact times, to achieve immobilization levels of 400, 800 or 1600 response units (RU) in vertical orientation. Injection of analytes: Injection direction was changed to horizontal orientation and 5 individual aVH-containing supernatants that were diluted 1:3 with PBST were injected simultaneously at 60 μl/min along separate channels 1-5, with association times between 120 and 180s, and dissociation times of 800s. Diluted bacterial supernatant without aVH was injected along the sixth channel to provide an “in-line” blank for referencing. Dissociation rate constants (koff) were calculated using the “koff-rate” calculation in ProteOn Manager v3.1 software.

[6] = molecular target: T4, human FAP avi his, biotinylated (human, UniProt Q12884 27-759, biotin on the avi-tag); experiment: SPR, bacterial supernatant;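 also: SPR at 25 °C with biotinylated human or murine FAP captured via neutravidin, aVH-containing bacterial supernatants diluted 1:3 as analyte, 600 s dissociation, blank supernatant without aVH as reference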
T4 construct: also called huFAP
Procedure: (§1) Clones that were identified in the “mix-and-read assay” performed with the Mirrorball instrument were further analyzed by Surface Plasmon Resonance (SPR). The off-rate of selected aVH clones was measured using a ProteOn XPR36 instrument (Biorad) at 25° C. with biotinylated human and murine FAP antigen immobilized on NLC chips by neutravidin capture. Immobilization of recombinant antigens (ligand): Antigens were diluted with PBST (10 mM phosphate, 150 mM sodium chloride pH 7.4, 0.005% Tween 20) to 10 μg/ml, then injected at 30 μl/minute at varying contact times, to achieve immobilization levels of 400, 800 or 1600 response units (RU) in vertical orientation. Injection of analytes: Injection direction was changed to horizontal orientation and 5 individual aVH-containing supernatants that were diluted 1:3 with PBST were injected simultaneously at 60 μl/min along separate channels 1-5, with association times between 120 and 180s, and dissociation times of 600s. Diluted bacterial supernatant without aVH was injected along the sixth channel to provide an “in-line” blank for referencing. Dissociation rate constants (koff) were calculated using the “koff-rate” calculation in ProteOn Manager v3.1 software.

[7] = molecular target: T5, murine FAP avi his, biotinylated (murine, UniProt P97321 27-761, biotin on the avi-tag); experiment: SPR, bacterial supernatant;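 also: SPR at 25 °C with biotinylated human or murine FAP captured via neutravidin, aVH-containing bacterial supernatants diluted 1:3 as analyte, 600 s dissociation, blank supernatant without aVH as reference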
T5 construct: also called muFAP; mu FAP
Procedure: as §1

[8] = molecular target: T5, murine FAP avi his, biotinylated; experiment: SPR, purified aVH, FAP immobilised
[9] = molecular target: T4, human FAP avi his, biotinylated; experiment: SPR, purified aVH, FAP immobilised

T1 sequence (chain, as listed by the source limits assumed): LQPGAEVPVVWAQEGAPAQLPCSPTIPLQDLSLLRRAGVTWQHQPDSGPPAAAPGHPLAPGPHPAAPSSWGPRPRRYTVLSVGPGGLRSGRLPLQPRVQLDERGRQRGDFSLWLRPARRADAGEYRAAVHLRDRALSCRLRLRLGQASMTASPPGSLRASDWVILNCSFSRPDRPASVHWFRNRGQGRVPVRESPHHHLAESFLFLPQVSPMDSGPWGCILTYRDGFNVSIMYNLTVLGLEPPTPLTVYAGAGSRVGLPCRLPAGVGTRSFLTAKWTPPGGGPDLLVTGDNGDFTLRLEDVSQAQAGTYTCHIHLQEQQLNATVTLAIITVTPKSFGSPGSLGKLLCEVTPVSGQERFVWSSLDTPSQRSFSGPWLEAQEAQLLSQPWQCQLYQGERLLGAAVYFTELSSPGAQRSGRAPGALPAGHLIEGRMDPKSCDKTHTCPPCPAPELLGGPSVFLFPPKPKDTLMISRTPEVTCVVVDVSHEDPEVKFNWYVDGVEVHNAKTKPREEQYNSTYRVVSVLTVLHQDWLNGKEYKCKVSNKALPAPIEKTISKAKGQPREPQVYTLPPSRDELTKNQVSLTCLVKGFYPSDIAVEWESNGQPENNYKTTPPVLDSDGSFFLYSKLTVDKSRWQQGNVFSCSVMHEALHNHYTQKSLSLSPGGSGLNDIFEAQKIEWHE

Kd [1]: 55 nM
koff [1]: 0.0138 s⁻¹
kon [1]: 251000 M⁻¹ s⁻¹
B1: LAG3 P11A2 aVH (VHH)
VHH: EVQLVESGGGLVQPGGSLRLSCAASSFNIKDTYIGWVRRAPGKGTELVAEIACHEGTTRYADSVKGRFTISCDTSKNTAYLQMNSLRAEDTAVYYCANTEYDDIFDYWGQGTTVTVSS

Kd [1]: 27 nM
koff [1]: 0.00383 s⁻¹
kon [1]: 144000 M⁻¹ s⁻¹
B2: LAG3 P10D1 aVH (VHH)
VHH: EVQLVESGGGLVQPGGSLRLSCAASGFSIKDTCIAWVRRAPGKGTELVAEICEDIGYTRYADSVKGRFTISADTSKNTAYLQMNSLRAEDTAVYYCAAKEAGVGFDYWGQGTTVTVSS
notes: also called P110D1

Kd [1]: 86 nM
koff [1]: 0.00314 s⁻¹
kon [1]: 36500 M⁻¹ s⁻¹
B3: LAG3 9B4 aVH (VHH)
VHH: B2 VHH with S28N, A35G, E53Q, K99V, A101V, G102A, V103E, G104Y, D106E

binding result [2]: binds
B4: SEQ ID NO 85 (VHH)
VHH: B2 VHH with S28N, A35G, E53Q, A98G, K99E, A101G, G102A, V103T, G104N, D106K
notes: also called LAG3-specific aVH

binding result [2]: binds
B5: SEQ ID NO 97 (VHH)
VHH: B2 VHH with S28N, A35G, E53D, A98S, K99Q, A101H, G102Q, V103W, G104S, D106K
notes: also called LAG3-specific aVH

binding result [2]: binds
B6: SEQ ID NO 89 (VHH)
VHH: B2 VHH with S28N, A35G, E53T, I55A, K99S, A101S, G102P, V103S, D106R
notes: also called LAG3-specific aVH

binding result [2]: binds
B7: SEQ ID NO 95 (VHH)
VHH: EVQLVESGGGLVQPGGSLRLSCAASGFNIKYQCIGWVRRAPGKGTELVAEICSYDGYTRYADSVKGRFTISADTSKNTAYLQMNSLRAEDTAVYYCAAEESVEGFIYWGQGTTVTVSS
notes: also called LAG3-specific aVH

binding result [2]: binds
B8: SEQ ID NO 79 (VHH)
VHH: B7 VHH with Y31D, Q32T, S53Q, Y54D, D55I, E99D, E103D, G104N, I106K
notes: also called LAG3-specific aVH

binding result [2]: binds
B9: SEQ ID NO 91 (VHH)
VHH: B7 VHH with Y31D, Q32T, S53H, Y54D, D55I, S101H, E103A, G104S, I106E
notes: also called LAG3-specific aVH

binding result [2]: binds
B10: SEQ ID NO 83 (VHH)
VHH: B2 VHH with S28N, A35G, K99N, A101H, G102S, D106N
notes: also called LAG3-specific aVH

binding result [2]: binds
B11: SEQ ID NO 77 (VHH)
VHH: B2 VHH with S28N, A35G, E53T, K99G, A101G, G102S, V103S, D106H
notes: also called LAG3-specific aVH

Kd [3]: 89.1 nM
Kd [4]: 190 nM
koff [5]: 0.0278 s⁻¹
B12: anti-CEA aVH P123.065 (VHH)
VHH: EVQLVESGGGLVQPGGSLRLSCAASGFNIKDSSTYIGWVRRAPGKEEELVASISCSRGNTRYADSVKGRFTISCDTSKNTAYLQMNSLRAEDTAVYYCAHPRYTWYDYWGQGTTVTVSS

koff [6]: 0.00508 s⁻¹
koff [7]: 0.00207 s⁻¹
Kd [8]: 23 nM
koff [8]: 0.00102 s⁻¹
kon [8]: 51000 M⁻¹ s⁻¹
B13: anti-FAP aVH P049.004 (VHH)
VHH: EVQLVESGGGLVQPGGSLRLSCAASSFNIKDTYIGWVRRAPGKEEELVANIYCNYGYTRYADSVKGRFTISCDTSKNTAYLQMNSLRAEDTAVYYCATSHTRYHYKYWGQGTTVTVSS

koff [6]: 0.00107 s⁻¹
koff [7]: 0.0255 s⁻¹
Kd [9]: 0.846 nM
koff [9]: 0.00046 s⁻¹
kon [9]: 552000 M⁻¹ s⁻¹
B14: anti-FAP aVH P034.090 (VHH)
VHH: EVQLVESGGGLVQPGGSLRLSCAASGFNIKDTCIGWVRRAPGKEEELVANICSSYGHTRYADSVKGRFTISADTSKNTAYLQMNSLRAEDTAVYYCASSYTIYRYSYWGQGTTVTVSS

koff [6]: 0.00542 s⁻¹
koff [7]: 0.0157 s⁻¹
Kd [9]: 1.15 nM
koff [9]: 0.00133 s⁻¹
kon [9]: 1.15e+06 M⁻¹ s⁻¹
Kd [8]: 24.5 nM
koff [8]: 0.00784 s⁻¹
kon [8]: 320000 M⁻¹ s⁻¹
B15: anti-FAP aVH P047.001 (VHH)
VHH: B14 VHH with S53G, S54K, Y55I, H57I, S98N, Y103V, S106D
